Measurements published in the supplement of paper PMC10567573.

B1: SAT2 (parent)
chain: GYGIYYFIYSTWKGRTIYLEDIYV
B2: RHOBTB2 (parent)
chain: LYTGELDENERDLMHIAHIAELLE

Variants of: B1
Test: protein stability index of a GFP-peptide fusion (GPS, HEK-293T) (PSI 1-6); higher = more stable
Conditions: c terminus: a fixed tail appended
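Note: lentivirally expressed fusions sorted by FACS into six bins by GFP to DsRed ratio, PSI derived from sequencing read proportions per bin multiplied by bin number.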

Row | Variant | protein stability index
1 | R15S | 2.1
2 | R15H | 2.96
3 | R15T | 3.03
4 | R15D | 2.9
5 | R15N | 2.37
6 | R15G | 2.53
7 | R15W | 3.58
8 | R15P | 2.17
9 | R15A | 4.7
10 | R15C | 3.31
11 | R15M | 3.05
12 | R15F | 4.58
13 | V24I | 1.48
14 | V24E | 2.6
15 | V24K | 3.94
16 | V24C | 3.63
17 | V24A | 2.62
18 | V24M | 1.63
19 | V24Y | 2.53
20 | V24S | 2.83
21 | V24R | 2.39
22 | V24G | 2.6
23 | V24F | 2.91
24 | V24P | 2.3

Row | Variant | protein stability index
25 | G3H | 2.85
26 | G3C | 2.12
27 | G3K | 2.62
28 | G3R | 2.96
29 | G3Y | 2.19
30 | G3E | 2.58
31 | G3P | 2.7
32 | G3F | 4.2
33 | G3I | 1.59
34 | G3D | 2.8
35 | T11A | 2.97
36 | T11S | 2.44
37 | T11F | 2.43
38 | T11W | 3.78
39 | T11Y | 2.83
40 | T11N | 4.08
41 | T11C | 4.22
42 | T11H | 3.48
43 | T11R | 2.28
44 | T11D | 3.32
45 | I8F | 3.4
46 | I8Y | 3.28
47 | I8V | 2.02
48 | I8S | 3.1

Row | Variant | protein stability index
49 | I8Q | 1.27
50 | I8E | 3.68
51 | I8A | 1.76
52 | I8H | 2.93
53 | I8T | 4.7
54 | I8C | 1.7
55 | I8R | 3.57
56 | E20A | 3.56
57 | E20G | 2.26
58 | E20M | 4.05
59 | E20P | 2.91
60 | E20F | 2.84
61 | E20V | 3.13
62 | E20W | 2.35
63 | E20C | 3.04
64 | E20N | 4.06
65 | E20R | 3.97
66 | E20S | 3.32
67 | E20T | 2.4
68 | E20H | 2.91
69 | Y6C | 2.94
70 | Y6A | 2.88
71 | Y6E | 2.64
72 | Y6Q | 3.44

Row | Variant | protein stability index
73 | Y6L | 1.83
74 | Y6F | 3.09
75 | Y6R | 3.12
76 | K13I | 2.8
77 | K13R | 3.04
78 | K13E | 3.58
79 | K13G | 2.94
80 | K13S | 2.39
81 | Y23H | 3.07
82 | Y23F | 2.37
83 | Y23W | 2.35
84 | Y23C | 2.65
85 | Y23L | 1.08
86 | Y23M | 2.71
87 | G14P | 2.33
88 | G14I | 2.04
89 | G14Y | 3.58
90 | G14M | 1.94
91 | G14N | 2.71
92 | G14T | 2.34
93 | G14R | 3.28
94 | G14L | 2.47
95 | G14V | 5.04
96 | G14W | 2.43

Row | Variant | protein stability index
97 | G14H | 4.09
98 | Y9G | 2.77
99 | Y9N | 2.2
100 | Y9D | 3.06
101 | Y9T | 2.78
102 | Y9M | 3.46
103 | Y9C | 2.94
104 | Y9V | 1.67
105 | Y9L | 2.57
106 | Y9P | 2.71
107 | T16S | 3.8
108 | T16F | 3.53
109 | T16L | 3.32
110 | T16W | 2.95
111 | T16G | 3.31
112 | T16R | 1.69
113 | T16C | 2.83
114 | T16A | 3.27
115 | T16N | 1.86
116 | W12N | 3.5
117 | W12C | 2.1
118 | W12T | 2.5
119 | W12K | 2.65
120 | W12V | 3.31

Row | Variant | protein stability index
121 | W12S | 4.37
122 | W12M | 4.12
123 | W12P | 2.36
124 | W12D | 2.25
125 | W12F | 2.8
126 | W12E | 2.55
127 | F7S | 2.8
128 | F7W | 2.65
129 | F7A | 2
130 | F7E | 2.37
131 | F7R | 2.72
132 | F7P | 3.4
133 | I22S | 3.3
134 | I22Q | 1.86
135 | I4W | 2.71
136 | I4G | 1.88
137 | I4H | 2.53
138 | I4V | 1.71
139 | I4N | 3.27
140 | I4D | 2.92
141 | I4C | 3.26
142 | I4A | 3.19
143 | I4M | 3.54
144 | D21K | 4.17

Row | Variant | protein stability index
145 | D21H | 2.67
146 | D21A | 2.28
147 | D21P | 2.44
148 | D21L | 2.9
149 | D21I | 3.08
150 | D21N | 2.74
151 | D21R | 1.47
152 | D21E | 2.34
153 | D21T | 1.75
154 | D21C | 2.34
155 | G1Y | 3.1
156 | G1R | 2.21
157 | G1H | 2.72
158 | G1L | 3.6
159 | G1F | 2.13
160 | G1C | 1.66
161 | G1I | 1.2
162 | G1S | 2.41
163 | Y2V | 2.26
164 | Y2D | 2.06
165 | Y2M | 2.92
166 | Y2W | 2.38
167 | Y2I | 3.75
168 | Y2R | 2.58

Row | Variant | protein stability index
169 | Y2S | 3.01
170 | Y2P | 1.91
171 | Y2H | 3.91
172 | I17F | 3.52
173 | I17K | 3.66
174 | I17Y | 2.1
175 | I17D | 3.35
176 | I17V | 2.27
177 | I17M | 1.75
178 | I17P | 2.91
179 | I17W | 2.17
180 | I17A | 3.11
181 | I17R | 1.72
182 | Y5D | 2.62
183 | Y5K | 2.61
184 | Y5T | 2.53
185 | Y5W | 2.09
186 | Y5R | 2.39
187 | Y5G | 3.41
188 | Y5H | 2.42
189 | Y5C | 2.85
190 | Y5I | 2.59
191 | L19F | 2.37
192 | L19Y | 4

Row | Variant | protein stability index
193 | L19N | 1.73
194 | L19I | 4.11
195 | L19S | 3.57
196 | L19G | 3.7
197 | L19H | 2.98
198 | Y18C | 1.89
199 | Y18T | 2.92
200 | Y18I | 1.92
201 | Y18K | 1.88
202 | Y18S | 2.33
203 | Y18H | 2.59
204 | S10W | 2.26
205 | S10M | 3.91
206 | S10Y | 2.76
207 | S10C | 2.53
208 | S10N | 2.55

Variants of: B2
Test: as above
Conditions: c terminus: a fixed tail appended

Row | Variant | protein stability index
209 | A20M | 2.01
210 | A20R | 3.22
211 | A20N | 3.74
212 | A20W | 2.37
213 | A20T | 2.76
214 | A20P | 3.79
215 | A20Y | 2.53
216 | A20S | 3.08
217 | A20L | 1.61
218 | A20C | 1.31
219 | A20V | 1.93
220 | A20E | 3.85
221 | A20Q | 3.72
222 | A20H | 3.54
223 | A20F | 1.97
224 | A20I | 2.14
225 | A20K | 2.99
226 | A20G | 3.3
227 | A20D | 3.34
228 | I19A | 3.38
229 | I19P | 4.81
230 | I19V | 3.1
231 | I19G | 4.45
232 | I19S | 3.26
233 | I19H | 3.62
234 | I19T | 3.79

Row | Variant | protein stability index
235 | I19N | 4.47
236 | I19R | 4.17
237 | I19M | 2.52
238 | I19L | 2.31
239 | I19Q | 3.37
240 | I19C | 3.3
241 | I19F | 2.67
242 | I19E | 4.85
243 | I19Y | 3.56
244 | I19W | 2.28
245 | I19D | 4.85
246 | I19K | 4.3
247 | E24Q | 2.38
248 | E24A | 3.44
249 | E24S | 2.22
250 | E24L | 2.18
251 | E24H | 2.21
252 | E24D | 2.94
253 | E24K | 2.12
254 | E24G | 2.85
255 | E24C | 2.04
256 | E24R | 2.11
257 | E24Y | 2.04
258 | E24N | 2.42
259 | E24M | 2.17
260 | E24I | 2

Row | Variant | protein stability index
261 | E24F | 1.79
262 | E24V | 1.97
263 | E24W | 1.91
264 | E24T | 2.3
265 | E24P | 3.33
266 | L22M | 2.18
267 | L22V | 2.72
268 | L22I | 2.56
269 | L22K | 3.67
270 | L22Q | 3.74
271 | L22R | 3.62
272 | L22N | 3.5
273 | L22Y | 3.03
274 | L22A | 2.96
275 | L22E | 4.08
276 | L22T | 3
277 | L22P | 4.75
278 | L22C | 2.79
279 | L22D | 4.26
280 | L22S | 3.66
281 | L22W | 2.52
282 | L22G | 3.6
283 | L22F | 3.41
284 | L22H | 3.76
285 | L23W | 2.55
286 | L23G | 4.05

Row | Variant | protein stability index
287 | L23K | 3.93
288 | L23T | 3.99
289 | L23R | 4.05
290 | L23M | 3.3
291 | L23P | 4.28
292 | L23I | 2.66
293 | L23S | 4.25
294 | L23D | 4.28
295 | L23E | 5.05
296 | L23Y | 3.31
297 | L23C | 3.58
298 | L23V | 2.62
299 | L23Q | 4.41
300 | L23H | 3.97
301 | L23F | 2.41
302 | L23A | 4.33
303 | L23N | 4.01
304 | E21C | 2.37
305 | E21M | 2.12
306 | E21P | 3.3
307 | E21N | 2.48
308 | E21F | 1.74
309 | E21L | 1.92
310 | E21S | 1.7
311 | E21H | 1.8
312 | E21Q | 2.32

Row | Variant | protein stability index
313 | E21G | 1.92
314 | E21W | 2.1
315 | E21D | 2.77
316 | E21K | 2.07
317 | E21Y | 1.76
318 | E21V | 1.04
319 | E21A | 1.72
320 | E21I | 1.77
321 | E21R | 1.85
322 | E21T | 1.75
323 | H18T | 1.95
324 | H18R | 2.38
325 | H18P | 2.88
326 | H18W | 2.11
327 | H18K | 3.54
328 | H18S | 3.03
329 | H18Y | 1.59
330 | H18N | 3.47
331 | H18Q | 1.82
332 | H18V | 2.05
333 | H18L | 1.23
334 | H18M | 2.71
